Several values for one entry are separate records, joined by “and”; a condition that tells them apart may be missing. Identical values can stand only once.
Target: HRgpA-6H (Porphyromonas gingivalis) (UniProt P28784)
Test: ELISA, coated HRgpA-6H

Sequence of UniProt P28784 (P28784 228-860 limits assumed): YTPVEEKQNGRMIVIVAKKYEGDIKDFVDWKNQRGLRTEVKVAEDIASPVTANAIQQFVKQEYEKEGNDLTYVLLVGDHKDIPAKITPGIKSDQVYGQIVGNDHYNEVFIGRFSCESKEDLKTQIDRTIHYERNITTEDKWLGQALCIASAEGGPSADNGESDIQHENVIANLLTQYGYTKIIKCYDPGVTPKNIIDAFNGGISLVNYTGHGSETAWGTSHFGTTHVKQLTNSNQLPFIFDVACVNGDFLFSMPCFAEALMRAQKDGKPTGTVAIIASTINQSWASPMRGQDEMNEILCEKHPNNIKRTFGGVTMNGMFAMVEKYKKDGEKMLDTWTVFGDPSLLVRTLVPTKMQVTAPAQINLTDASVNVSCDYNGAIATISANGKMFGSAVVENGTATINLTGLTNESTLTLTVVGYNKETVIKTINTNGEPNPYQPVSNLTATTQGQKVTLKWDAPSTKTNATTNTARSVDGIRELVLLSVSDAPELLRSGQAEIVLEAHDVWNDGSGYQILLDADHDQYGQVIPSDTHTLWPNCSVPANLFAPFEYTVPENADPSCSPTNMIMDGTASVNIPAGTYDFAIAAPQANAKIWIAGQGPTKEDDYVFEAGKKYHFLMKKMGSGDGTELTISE

Binder	OD450 nm	Ratio OD(Variant)/OD(WT)
KB001 mouse Fab VH S30H (Fab, V domains shown) VH: EVQLKQSGPGLVAPSQSLSITCTVSGFSLHIYSVHWVRQPPGKGLEWLGMIWGGGSSDYNSALKSRLSISKDNSKSQVFLKMNSLQTDDTAMYYCARNGNFYAMDYWGQGTSVTVSS VL: QIVLTQSPAIMSASLGERVTMTCTASSSVSSSFLHWYQQKPGSSPQLWIYSTSNLASGVPARFSGSGSGTSYSLTISSMEAEDAATYYCHQYHHSPYIYTFGGGTKLEIK	0.482	0.955
KB001 mouse Fab VH S56P (Fab, V domains shown) VH: EVQLKQSGPGLVAPSQSLSITCTVSGFSLSIYSVHWVRQPPGKGLEWLGMIWGGGPSDYNSALKSRLSISKDNSKSQVFLKMNSLQTDDTAMYYCARNGNFYAMDYWGQGTSVTVSS VL: QIVLTQSPAIMSASLGERVTMTCTASSSVSSSFLHWYQQKPGSSPQLWIYSTSNLASGVPARFSGSGSGTSYSLTISSMEAEDAATYYCHQYHHSPYIYTFGGGTKLEIK	0.855 and 0.788 and 0.824	0.972 and 0.896 and 0.937
KB001 mouse Fab VH I51V (Fab, V domains shown) VH: EVQLKQSGPGLVAPSQSLSITCTVSGFSLSIYSVHWVRQPPGKGLEWLGMVWGGGSSDYNSALKSRLSISKDNSKSQVFLKMNSLQTDDTAMYYCARNGNFYAMDYWGQGTSVTVSS VL: QIVLTQSPAIMSASLGERVTMTCTASSSVSSSFLHWYQQKPGSSPQLWIYSTSNLASGVPARFSGSGSGTSYSLTISSMEAEDAATYYCHQYHHSPYIYTFGGGTKLEIK	0.798	0.903
KB001 mouse Fab VH I51Q/M92I (Fab, V domains shown) VH: EVQLKQSGPGLVAPSQSLSITCTVSGFSLSIYSVHWVRQPPGKGLEWLGMQWGGGSSDYNSALKSRLSISKDNSKSQVFLKMNSLQTDDTAIYYCARNGNFYAMDYWGQGTSVTVSS VL: QIVLTQSPAIMSASLGERVTMTCTASSSVSSSFLHWYQQKPGSSPQLWIYSTSNLASGVPARFSGSGSGTSYSLTISSMEAEDAATYYCHQYHHSPYIYTFGGGTKLEIK	0.722	0.817
KB001 mouse Fab VH G55D (Fab, V domains shown) VH: EVQLKQSGPGLVAPSQSLSITCTVSGFSLSIYSVHWVRQPPGKGLEWLGMIWGGDSSDYNSALKSRLSISKDNSKSQVFLKMNSLQTDDTAMYYCARNGNFYAMDYWGQGTSVTVSS VL: QIVLTQSPAIMSASLGERVTMTCTASSSVSSSFLHWYQQKPGSSPQLWIYSTSNLASGVPARFSGSGSGTSYSLTISSMEAEDAATYYCHQYHHSPYIYTFGGGTKLEIK	0.697	0.866
KB001 mouse Fab VH Y32S (Fab, V domains shown) VH: EVQLKQSGPGLVAPSQSLSITCTVSGFSLSISSVHWVRQPPGKGLEWLGMIWGGGSSDYNSALKSRLSISKDNSKSQVFLKMNSLQTDDTAMYYCARNGNFYAMDYWGQGTSVTVSS VL: QIVLTQSPAIMSASLGERVTMTCTASSSVSSSFLHWYQQKPGSSPQLWIYSTSNLASGVPARFSGSGSGTSYSLTISSMEAEDAATYYCHQYHHSPYIYTFGGGTKLEIK	0.717 and 0.783 and 0.718	0.847 and 0.925 and 0.848
KB001 mouse Fab VH I31Q (Fab, V domains shown) VH: EVQLKQSGPGLVAPSQSLSITCTVSGFSLSQYSVHWVRQPPGKGLEWLGMIWGGGSSDYNSALKSRLSISKDNSKSQVFLKMNSLQTDDTAMYYCARNGNFYAMDYWGQGTSVTVSS VL: QIVLTQSPAIMSASLGERVTMTCTASSSVSSSFLHWYQQKPGSSPQLWIYSTSNLASGVPARFSGSGSGTSYSLTISSMEAEDAATYYCHQYHHSPYIYTFGGGTKLEIK	0.44 and 0.439	0.872 and 0.87
KB001 mouse Fab VH V34M (Fab, V domains shown) VH: EVQLKQSGPGLVAPSQSLSITCTVSGFSLSIYSMHWVRQPPGKGLEWLGMIWGGGSSDYNSALKSRLSISKDNSKSQVFLKMNSLQTDDTAMYYCARNGNFYAMDYWGQGTSVTVSS VL: QIVLTQSPAIMSASLGERVTMTCTASSSVSSSFLHWYQQKPGSSPQLWIYSTSNLASGVPARFSGSGSGTSYSLTISSMEAEDAATYYCHQYHHSPYIYTFGGGTKLEIK	0.793 and 0.791	0.962 and 0.959
KB001 mouse Fab VH Y32N (Fab, V domains shown) VH: EVQLKQSGPGLVAPSQSLSITCTVSGFSLSINSVHWVRQPPGKGLEWLGMIWGGGSSDYNSALKSRLSISKDNSKSQVFLKMNSLQTDDTAMYYCARNGNFYAMDYWGQGTSVTVSS VL: QIVLTQSPAIMSASLGERVTMTCTASSSVSSSFLHWYQQKPGSSPQLWIYSTSNLASGVPARFSGSGSGTSYSLTISSMEAEDAATYYCHQYHHSPYIYTFGGGTKLEIK	0.826 and 0.775	0.976 and 0.916
KB001 mouse Fab VH Y32W (Fab, V domains shown) VH: EVQLKQSGPGLVAPSQSLSITCTVSGFSLSIWSVHWVRQPPGKGLEWLGMIWGGGSSDYNSALKSRLSISKDNSKSQVFLKMNSLQTDDTAMYYCARNGNFYAMDYWGQGTSVTVSS VL: QIVLTQSPAIMSASLGERVTMTCTASSSVSSSFLHWYQQKPGSSPQLWIYSTSNLASGVPARFSGSGSGTSYSLTISSMEAEDAATYYCHQYHHSPYIYTFGGGTKLEIK	0.731 and 0.718 and 0.747	0.864 and 0.848 and 0.882
KB001 mouse Fab VH G53S (Fab, V domains shown) VH: EVQLKQSGPGLVAPSQSLSITCTVSGFSLSIYSVHWVRQPPGKGLEWLGMIWSGGSSDYNSALKSRLSISKDNSKSQVFLKMNSLQTDDTAMYYCARNGNFYAMDYWGQGTSVTVSS VL: QIVLTQSPAIMSASLGERVTMTCTASSSVSSSFLHWYQQKPGSSPQLWIYSTSNLASGVPARFSGSGSGTSYSLTISSMEAEDAATYYCHQYHHSPYIYTFGGGTKLEIK	0.686	0.861
KB001 mouse Fab VH G55N (Fab, V domains shown) VH: EVQLKQSGPGLVAPSQSLSITCTVSGFSLSIYSVHWVRQPPGKGLEWLGMIWGGNSSDYNSALKSRLSISKDNSKSQVFLKMNSLQTDDTAMYYCARNGNFYAMDYWGQGTSVTVSS VL: QIVLTQSPAIMSASLGERVTMTCTASSSVSSSFLHWYQQKPGSSPQLWIYSTSNLASGVPARFSGSGSGTSYSLTISSMEAEDAATYYCHQYHHSPYIYTFGGGTKLEIK	0.652	0.81
KB001 mouse Fab VH I31L (Fab, V domains shown) VH: EVQLKQSGPGLVAPSQSLSITCTVSGFSLSLYSVHWVRQPPGKGLEWLGMIWGGGSSDYNSALKSRLSISKDNSKSQVFLKMNSLQTDDTAMYYCARNGNFYAMDYWGQGTSVTVSS VL: QIVLTQSPAIMSASLGERVTMTCTASSSVSSSFLHWYQQKPGSSPQLWIYSTSNLASGVPARFSGSGSGTSYSLTISSMEAEDAATYYCHQYHHSPYIYTFGGGTKLEIK	0.442 and 0.431	0.876 and 0.854
KB001 mouse Fab VH I31W (Fab, V domains shown) VH: EVQLKQSGPGLVAPSQSLSITCTVSGFSLSWYSVHWVRQPPGKGLEWLGMIWGGGSSDYNSALKSRLSISKDNSKSQVFLKMNSLQTDDTAMYYCARNGNFYAMDYWGQGTSVTVSS VL: QIVLTQSPAIMSASLGERVTMTCTASSSVSSSFLHWYQQKPGSSPQLWIYSTSNLASGVPARFSGSGSGTSYSLTISSMEAEDAATYYCHQYHHSPYIYTFGGGTKLEIK	0.459	0.91
KB001 mouse Fab VH I31E (Fab, V domains shown) VH: EVQLKQSGPGLVAPSQSLSITCTVSGFSLSEYSVHWVRQPPGKGLEWLGMIWGGGSSDYNSALKSRLSISKDNSKSQVFLKMNSLQTDDTAMYYCARNGNFYAMDYWGQGTSVTVSS VL: QIVLTQSPAIMSASLGERVTMTCTASSSVSSSFLHWYQQKPGSSPQLWIYSTSNLASGVPARFSGSGSGTSYSLTISSMEAEDAATYYCHQYHHSPYIYTFGGGTKLEIK	0.42 and 0.458 and 0.428	0.833 and 0.908 and 0.848
KB001 mouse Fab VH H35V (Fab, V domains shown) VH: EVQLKQSGPGLVAPSQSLSITCTVSGFSLSIYSVVWVRQPPGKGLEWLGMIWGGGSSDYNSALKSRLSISKDNSKSQVFLKMNSLQTDDTAMYYCARNGNFYAMDYWGQGTSVTVSS VL: QIVLTQSPAIMSASLGERVTMTCTASSSVSSSFLHWYQQKPGSSPQLWIYSTSNLASGVPARFSGSGSGTSYSLTISSMEAEDAATYYCHQYHHSPYIYTFGGGTKLEIK	0.706	0.856
KB001 mouse Fab VH I31F (Fab, V domains shown) VH: EVQLKQSGPGLVAPSQSLSITCTVSGFSLSFYSVHWVRQPPGKGLEWLGMIWGGGSSDYNSALKSRLSISKDNSKSQVFLKMNSLQTDDTAMYYCARNGNFYAMDYWGQGTSVTVSS VL: QIVLTQSPAIMSASLGERVTMTCTASSSVSSSFLHWYQQKPGSSPQLWIYSTSNLASGVPARFSGSGSGTSYSLTISSMEAEDAATYYCHQYHHSPYIYTFGGGTKLEIK	0.45	0.892
KB001 mouse Fab VH I31P (Fab, V domains shown) VH: EVQLKQSGPGLVAPSQSLSITCTVSGFSLSPYSVHWVRQPPGKGLEWLGMIWGGGSSDYNSALKSRLSISKDNSKSQVFLKMNSLQTDDTAMYYCARNGNFYAMDYWGQGTSVTVSS VL: QIVLTQSPAIMSASLGERVTMTCTASSSVSSSFLHWYQQKPGSSPQLWIYSTSNLASGVPARFSGSGSGTSYSLTISSMEAEDAATYYCHQYHHSPYIYTFGGGTKLEIK	0.471 and 0.428	0.934 and 0.848
KB001 mouse Fab VH G53P (Fab, V domains shown) VH: EVQLKQSGPGLVAPSQSLSITCTVSGFSLSIYSVHWVRQPPGKGLEWLGMIWPGGSSDYNSALKSRLSISKDNSKSQVFLKMNSLQTDDTAMYYCARNGNFYAMDYWGQGTSVTVSS VL: QIVLTQSPAIMSASLGERVTMTCTASSSVSSSFLHWYQQKPGSSPQLWIYSTSNLASGVPARFSGSGSGTSYSLTISSMEAEDAATYYCHQYHHSPYIYTFGGGTKLEIK	0.754 and 0.716	0.947 and 0.899
KB001 mouse Fab VH Y32F (Fab, V domains shown) VH: EVQLKQSGPGLVAPSQSLSITCTVSGFSLSIFSVHWVRQPPGKGLEWLGMIWGGGSSDYNSALKSRLSISKDNSKSQVFLKMNSLQTDDTAMYYCARNGNFYAMDYWGQGTSVTVSS VL: QIVLTQSPAIMSASLGERVTMTCTASSSVSSSFLHWYQQKPGSSPQLWIYSTSNLASGVPARFSGSGSGTSYSLTISSMEAEDAATYYCHQYHHSPYIYTFGGGTKLEIK	0.814 and 0.807	0.962 and 0.953
KB001 mouse Fab VH I31N (Fab, V domains shown) VH: EVQLKQSGPGLVAPSQSLSITCTVSGFSLSNYSVHWVRQPPGKGLEWLGMIWGGGSSDYNSALKSRLSISKDNSKSQVFLKMNSLQTDDTAMYYCARNGNFYAMDYWGQGTSVTVSS VL: QIVLTQSPAIMSASLGERVTMTCTASSSVSSSFLHWYQQKPGSSPQLWIYSTSNLASGVPARFSGSGSGTSYSLTISSMEAEDAATYYCHQYHHSPYIYTFGGGTKLEIK	0.429	0.85

Source: patent publication US20240400654A1
